In experiment [1] the target is T1, CtKti12NTD (Thermochaetoides thermophila, UniProt G0SHI1).
T1 sequence (G0SHI1 2-252): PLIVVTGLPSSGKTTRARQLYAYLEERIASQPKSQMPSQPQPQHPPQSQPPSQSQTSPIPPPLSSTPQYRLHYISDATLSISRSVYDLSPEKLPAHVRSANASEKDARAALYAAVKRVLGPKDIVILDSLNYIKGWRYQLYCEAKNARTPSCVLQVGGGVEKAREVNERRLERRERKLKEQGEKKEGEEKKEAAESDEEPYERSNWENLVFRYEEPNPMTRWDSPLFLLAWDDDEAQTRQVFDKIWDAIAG
Put plainly: X-ray crystal structure, […] Å. As to conditions: bound as ADP·AlF3 with Mg2+, transition state mimic; nucleotide site. Format: binding.

Experiment [2] concerns the target T2, CtKti12 (also ChKti12), full length (Thermochaetoides thermophila, UniProt G0SHI1).
T2 sequence (G0SHI1 1-378): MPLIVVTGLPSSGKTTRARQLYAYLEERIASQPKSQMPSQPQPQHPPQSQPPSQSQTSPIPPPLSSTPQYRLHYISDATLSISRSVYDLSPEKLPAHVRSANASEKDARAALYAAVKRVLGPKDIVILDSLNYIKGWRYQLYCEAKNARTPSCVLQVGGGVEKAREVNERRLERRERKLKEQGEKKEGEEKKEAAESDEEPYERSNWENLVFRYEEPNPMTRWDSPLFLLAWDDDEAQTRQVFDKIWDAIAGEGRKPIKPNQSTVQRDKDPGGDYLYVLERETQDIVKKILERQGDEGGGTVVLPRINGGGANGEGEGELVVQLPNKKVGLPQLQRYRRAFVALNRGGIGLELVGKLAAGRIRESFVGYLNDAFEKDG
To be noted: 1 mM ATP; 2 mM MgCl2; pH 7.5.

For experiment [3], the target named is T3, GST-ScElp1 first and second WD40 domains (aa 1-734) (Saccharomyces cerevisiae, UniProt Q06706 1-734).
T3 sequence (looked up): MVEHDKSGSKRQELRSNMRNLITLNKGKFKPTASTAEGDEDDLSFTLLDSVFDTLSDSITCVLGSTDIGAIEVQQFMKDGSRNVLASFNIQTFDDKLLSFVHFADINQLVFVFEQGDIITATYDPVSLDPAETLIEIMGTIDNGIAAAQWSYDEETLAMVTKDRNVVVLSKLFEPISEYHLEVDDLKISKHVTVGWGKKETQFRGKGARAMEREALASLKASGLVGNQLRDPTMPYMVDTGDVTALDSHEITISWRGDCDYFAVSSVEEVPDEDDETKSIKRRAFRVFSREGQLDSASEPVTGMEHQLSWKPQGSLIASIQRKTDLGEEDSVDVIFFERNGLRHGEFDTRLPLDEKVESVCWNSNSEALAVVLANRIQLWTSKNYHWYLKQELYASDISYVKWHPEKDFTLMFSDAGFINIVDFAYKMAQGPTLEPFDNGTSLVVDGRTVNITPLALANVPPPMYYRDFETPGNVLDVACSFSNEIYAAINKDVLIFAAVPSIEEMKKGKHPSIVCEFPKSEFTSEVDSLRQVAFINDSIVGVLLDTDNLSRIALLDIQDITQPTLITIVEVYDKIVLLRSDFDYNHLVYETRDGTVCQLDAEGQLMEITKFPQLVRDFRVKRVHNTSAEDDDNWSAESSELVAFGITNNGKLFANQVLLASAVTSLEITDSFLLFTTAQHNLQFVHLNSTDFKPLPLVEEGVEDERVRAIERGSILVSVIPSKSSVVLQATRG
Put plainly: pull-down.

In experiment [4] the target is T4, Full length GST-ScElp1 (Saccharomyces cerevisiae, UniProt Q06706 1-1349).
T4 sequence (looked up): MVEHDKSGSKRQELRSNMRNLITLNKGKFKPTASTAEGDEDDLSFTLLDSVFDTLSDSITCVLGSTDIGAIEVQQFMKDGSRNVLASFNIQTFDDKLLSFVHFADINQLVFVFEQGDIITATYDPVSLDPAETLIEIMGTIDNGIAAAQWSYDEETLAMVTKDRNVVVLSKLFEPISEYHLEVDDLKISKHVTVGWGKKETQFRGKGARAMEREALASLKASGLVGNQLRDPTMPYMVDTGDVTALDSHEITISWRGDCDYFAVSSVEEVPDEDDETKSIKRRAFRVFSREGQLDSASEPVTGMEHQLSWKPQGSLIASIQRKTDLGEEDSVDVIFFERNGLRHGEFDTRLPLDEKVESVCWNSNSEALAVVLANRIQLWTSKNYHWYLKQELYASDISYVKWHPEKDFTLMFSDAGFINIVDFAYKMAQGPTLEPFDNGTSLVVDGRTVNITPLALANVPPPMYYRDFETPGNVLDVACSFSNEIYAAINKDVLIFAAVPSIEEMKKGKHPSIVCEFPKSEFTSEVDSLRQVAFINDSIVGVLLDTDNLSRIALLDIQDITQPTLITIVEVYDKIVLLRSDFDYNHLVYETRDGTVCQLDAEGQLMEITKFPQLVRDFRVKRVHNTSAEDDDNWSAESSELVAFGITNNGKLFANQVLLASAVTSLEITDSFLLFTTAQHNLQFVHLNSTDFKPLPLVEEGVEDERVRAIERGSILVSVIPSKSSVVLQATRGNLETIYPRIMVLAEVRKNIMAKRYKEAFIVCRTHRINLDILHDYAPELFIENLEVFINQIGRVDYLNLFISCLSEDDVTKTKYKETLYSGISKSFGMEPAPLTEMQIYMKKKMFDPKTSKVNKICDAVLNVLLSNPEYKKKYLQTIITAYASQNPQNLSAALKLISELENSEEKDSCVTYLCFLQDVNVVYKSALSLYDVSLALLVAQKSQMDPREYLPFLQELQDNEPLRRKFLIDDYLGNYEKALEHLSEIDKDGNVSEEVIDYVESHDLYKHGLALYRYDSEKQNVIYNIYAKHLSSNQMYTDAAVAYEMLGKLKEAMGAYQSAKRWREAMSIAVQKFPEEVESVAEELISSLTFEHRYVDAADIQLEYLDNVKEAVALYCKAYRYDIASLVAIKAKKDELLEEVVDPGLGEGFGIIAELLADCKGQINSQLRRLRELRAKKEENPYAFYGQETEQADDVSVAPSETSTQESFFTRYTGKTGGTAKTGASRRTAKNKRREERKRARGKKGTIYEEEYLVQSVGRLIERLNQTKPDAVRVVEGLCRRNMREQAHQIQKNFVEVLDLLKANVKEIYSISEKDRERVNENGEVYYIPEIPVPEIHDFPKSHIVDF
Put plainly: pull-down.

For experiment [5], the target named is T5, GST-ScElp1 first WD40 domain (aa 42-431) (Saccharomyces cerevisiae, UniProt Q06706 42-431).
T5 sequence (looked up): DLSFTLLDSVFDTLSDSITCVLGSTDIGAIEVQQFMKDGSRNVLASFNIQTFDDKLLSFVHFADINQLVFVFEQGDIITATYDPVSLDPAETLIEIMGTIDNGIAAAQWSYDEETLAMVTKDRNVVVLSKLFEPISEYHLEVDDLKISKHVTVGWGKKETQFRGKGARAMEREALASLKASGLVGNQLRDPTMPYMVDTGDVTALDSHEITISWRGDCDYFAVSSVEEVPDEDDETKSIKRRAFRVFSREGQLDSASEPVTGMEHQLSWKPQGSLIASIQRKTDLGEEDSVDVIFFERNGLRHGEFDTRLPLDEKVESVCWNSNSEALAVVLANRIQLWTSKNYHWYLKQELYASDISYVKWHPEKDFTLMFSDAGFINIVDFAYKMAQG
Put plainly: pull-down.

In the case of `Nc1ncnc2c1ncn2[C@@H]1O[C@H](COP(=O)(O)OP(=O)(O)O)[C@@H](O)[C@H]1O` [ADP], the “X-ray crystal structure, 2.4 Å” value in experiment [1] is “We solved the structure of CtKti12NTD in complex with ADP·AlF3”. Turning to `Nc1ncnc2c1ncn2[C@@H]1O[C@H](COP(=O)(O)OP(=O)(O)OP(=O)(O)O)[C@@H](O)[C@H]1O` [ATP], in experiment [2], the dTm entry is “addition of ATP contributed to an increased thermostability of CtKti12 and ScKti12 in vitro”.

B1: ScKti12-6xHis (Saccharomyces cerevisiae Kti12, wild type) (natural protein)
chain: MPLVLFTGYPCSGKTTLAKHLVQLLQSKIDATPSLSKYSITYHSDESLGIKHSDYITSQDERKLRSEIISAVKRDLSKNKIVIVDSLNYIKGFRYQLHCEVKNLSTTFCVIQTLCPPETIFEWNKTSNPNPWEPELLNQLIQRYEEPNSSNRWDSPLFAILTPQDNITDYIDDICKVVFQTSKSAKNSGHNDPLSKGLQKPNSATVLKPASQSNFIQVLDIETSKIIKTIMNHIKSLTSIGGVSNGTRVIVSEGITDINDDGCFFVDLPIGNVVTLAQLQRLKRQFINFNKLRDIDQDRIGPLFADYLNKNLN
As to B1, the binding result in experiment [3], in experiment [4] and in experiment [5] was “binds” in each case.

The values are drawn from PMC6511879 (Nucleic Acids Research, 2019).
